What was measured:
Type in all cases: in vivo
[1] = test system: Arabidopsis thaliana T1 plants; test: Topramezone tolerance of transgenic Arabidopsis thaliana T1 plants (spray, bleached leaf area grade, damage score); details: for Classification and statistics of the grade of pesticide damage Grade 0: number of plants at grade 0; for Classification and statistics of the grade of pesticide damage Grade 1: number of plants at grade 1; for Classification and statistics of the grade of pesticide damage Grade 2: number of plants at grade 2; for Classification and statistics of the grade of pesticide damage Grade 3: number of plants at grade 3; for Classification and statistics of the grade of pesticide damage: Grade 0 / Classification and statistics of the grade of pesticide damage: Grade 1 / Classification and statistics of the grade of pesticide damage: Grade 2 / Classification and statistics of the grade of pesticide damage: Grade 3: number of plants
In short: (§1)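 Damage was assessed by bleaching grade (0 none; 1 <50%; 2 >50%; 3 100% of leaf area) one week after spraying. Sprays on 18-day-old T1 and wild-type plants used field-rate multiples: topramezone 25–200, isoxaflutole 35–280, mesotrione 52.5–420 g ai/ha.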

[2] = test system: Arabidopsis thaliana T1 plants; test: Isoxaflutole tolerance of transgenic Arabidopsis thaliana T1 plants (spray, bleached leaf area grade, damage score); parameters: Scores (pesticide damage): scale not given here; details: for Classification and statistics of the grade of pesticide damage: Grade 0 (number of plants) / Classification and statistics of the grade of pesticide damage: Grade 1 (number of plants) / Classification and statistics of the grade of pesticide damage: Grade 2 (number of plants) / Classification and statistics of the grade of pesticide damage: Grade 3 (number of plants): 16 plants; for Classification and statistics of the grade of pesticide damage Grade 0 / Classification and statistics of the grade of pesticide damage Grade 1 / Classification and statistics of the grade of pesticide damage Grade 2 / Classification and statistics of the grade of pesticide damage Grade 3: number of plants in grade
In short: as §1

[3] = test system: Arabidopsis thaliana T1 plants; test: Mesotrione tolerance of transgenic Arabidopsis thaliana T1 plants (spray, bleached leaf area grade, damage score); parameters: Scores: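 damage score 0-100 computed as Σ(N×S)/(T×M)×100 over grades 0-3 with higher meaning more damage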; details: for Grade 0 (classification and statistics of the grade of pesticide damage; number of plants) / Grade 1 (classification and statistics of the grade of pesticide damage; number of plants) / Grade 2 (classification and statistics of the grade of pesticide damage; number of plants) / Grade 3 (classification and statistics of the grade of pesticide damage; number of plants): 16 plants; for Classification and statistics of the grade of pesticide damage Grade 0 / Classification and statistics of the grade of pesticide damage Grade 1 / Classification and statistics of the grade of pesticide damage Grade 2 / Classification and statistics of the grade of pesticide damage Grade 3: number of plants in grade
In short: as §1

[4] = Table 13, topramezone 25 g ai/ha (1×)
[5] = Table 13, topramezone 100 g ai/ha (4×)
[6] = topramezone 25 g ai/ha (1×), 7 DAT, Table 4
[7] = topramezone 100 g ai/ha (4×), 7 DAT, Table 4
[8] = isoxaflutole 35 g ai/ha (0.5x field concentration), spray, Arabidopsis thaliana T1 plants
[9] = isoxaflutole 70 g ai/ha (1x field concentration), spray, Arabidopsis thaliana T1 plants
[10] = mesotrione 52.5 g ai/ha, Arabidopsis thaliana T1 plants
[11] = mesotrione 105 g ai/ha, Arabidopsis thaliana T1 plants

B1: AtHPPD-02: nucleotide sequence encoding wild-type Arabidopsis thaliana HPPD; vector DBN11730 (nucleic acid)
DNA: ATGGGACATCAGAATGCTGCTGTATCAGAAAATCAAAATCATGATGATGGAGCCGCCTCCTCACCAGGGTTTAAGTTGGTTGGGTTCTCCAAGTTTGTACGGAAGAACCCAAAATCCGACAAGTTCAAGGTTAAACGCTTCCACCACATTGAATTCTGGTGCGGCGACGCCACCAATGTTGCTCGGCGTTTTTCATGGGGTTTAGGCATGAGATTCTCAGCAAAGAGTGACCTGAGCACCGGCAACATGGTTCATGCTAGCTATCTCTTAACATCTGGAGATTTGAGGTTTCTTTTCACGGCGCCGTACTCACCATCACTCTCCGCCGGCGAGATCAAACCCACCACGACTGCAAGCATACCTTCATTTGATCATGGTAGTTGCAGATCCTTCTTCTCGTCGCACGGCCTAGGGGTGCGCGCGGTCGCCATCGAAGTTGAAGATGCAGAATCAGCGTTTAGTATCAGCGTGGCAAATGGAGCTATTCCTTCCTCCCCTCCAATTGTCCTCAATGAGGCTGTAACTATTGCCGAGGTGAAGTTGTATGGAGATGTTGTGCTGAGATATGTTTCTTACAAGGCAGAGGACACTGAGAAATCTGAATTTTTGCCTGGTTTTGAAAGGGTCGAGGATGCTTCAAGTTTTCCTCTTGATTACGGCATACGACGGTTGGATCACGCGGTTGGAAATGTACCAGAACTTGGGCCGGCGCTCACTTATGTGGCTGGTTTCACTGGATTCCATCAATTTGCTGAGTTCACAGCTGATGATGTTGGGACTGCTGAAAGTGGGTTGAACTCTGCAGTCCTCGCCTCTAATGATGAAATGGTGCTCCTCCCGATCAACGAGCCTGTGCATGGCACCAAAAGGAAATCACAAATACAGACATATCTTGAGCACAATGAAGGTGCAGGGCTTCAACATCTTGCACTGATGTCTGAAGACATTTTCCGTACGCTGAGAGAGATGAGGAAGAGAAGTAGTATTGGTGGATTTGACTTCATGCCTTCTCCCCCACCAACTTACTACCAGAACTTGAAGAAGAGGGTTGGTGATGTGCTATCTGATGACCAGATCAAGGAGTGTGAAGAATTGGGCATTCTTGTTGATCGGGACGACCAAGGAACATTACTGCAGATATTTACAAAACCACTTGGTGACCGCCCCACTATTTTTATTGAGATCATACAAAGAGTCGGCTGCATGATGAAGGATGAGGAAGGAAAAGCATATCAATCTGGTGGTTGTGGCGGCTTTGGGAAAGGAAACTTCTCTGAGCTGTTCAAATCCATCGAGGAGTATGAGAAGACCTTGGAGGCCAAGCAGCTCGTGGGTTGA
modifications: AtHPPD-02 Nucleotide Sequence
notes: vector DBN11730
For B1, the Resistance evaluation [1, 4] was “Non-resistant”, the “Classification and statistics of the grade of pesticide damage Grade 0” value [1, 4] was 0 and the “Classification and statistics of the grade of pesticide damage Grade 1” value [1, 4] was 0. For the same molecule, the “Classification and statistics of the grade of pesticide damage Grade 2” value [1, 4] was 0, the “Classification and statistics of the grade of pesticide damage Grade 3” value [1, 4] was 16 and the Scores ([1]; Table 13, topramezone 25 g ai/ha (1×), pesticide damage score) was 100. For the same molecule, the Resistance evaluation [1, 5] was “Non-resistant”, the “Classification and statistics of the grade of pesticide damage Grade 0” value [1, 5] was 0 and the “Classification and statistics of the grade of pesticide damage Grade 1” value [1, 5] was 0. For the same molecule, the “Classification and statistics of the grade of pesticide damage Grade 2” value [1, 5] was 0, the “Classification and statistics of the grade of pesticide damage Grade 3” value [1, 5] was 16 and the Scores ([1]; Table 13, topramezone 100 g ai/ha (4×), pesticide damage score) was 100. For the same molecule, the “Classification and statistics of the grade of pesticide damage: Grade 0” value [1, 6] was 0, the “Classification and statistics of the grade of pesticide damage: Grade 1” value [1, 6] was 0 and the “Classification and statistics of the grade of pesticide damage: Grade 2” value [1, 6] was 0. For the same molecule, the “Classification and statistics of the grade of pesticide damage: Grade 3” value [1, 6] was 16, the “Classification and statistics of the grade of pesticide damage: Grade 0” value [1, 7] was 0 and the “Classification and statistics of the grade of pesticide damage: Grade 1” value [1, 7] was 0. The “Classification and statistics of the grade of pesticide damage: Grade 2” value [1, 7] was 0, the “Classification and statistics of the grade of pesticide damage: Grade 3” value [1, 7] was 16 and the Scores ([1]; pesticide damage score 0-100, topramezone 25 g ai/ha (1×), 7 DAT, Table 4) was 100. The Scores ([1]; pesticide damage score 0-100, topramezone 100 g ai/ha (4×), 7 DAT, Table 4) was 100, the Resistance evaluation [1, 6] was “non-resistant (non-resistant plants (scores 68-100))” and the Resistance evaluation [1, 7] was “non-resistant (non-resistant plants (scores 68-100))”. For the same molecule, the Resistance evaluation ([2]; isoxaflutole 35 g ai/ha) was “Non-resistant”, the Scores ([2]; isoxaflutole 35 g ai/ha) was 100 and the Resistance evaluation [2, 8] was “Non-resistant”. The “Scores (pesticide damage)” value [2, 8] was 100, the “Classification and statistics of the grade of pesticide damage: Grade 0 (number of plants)” value [2, 8] was 0 and the “Classification and statistics of the grade of pesticide damage: Grade 1 (number of plants)” value [2, 8] was 0. For the same molecule, the “Classification and statistics of the grade of pesticide damage: Grade 2 (number of plants)” value [2, 8] was 0, the “Classification and statistics of the grade of pesticide damage: Grade 3 (number of plants)” value [2, 8] was 16 and the “Classification and statistics of the grade of pesticide damage Grade 0” value ([2]; isoxaflutole 35 g ai/ha) was 0. The “Classification and statistics of the grade of pesticide damage Grade 1” value ([2]; isoxaflutole 35 g ai/ha) was 0, the “Classification and statistics of the grade of pesticide damage Grade 2” value ([2]; isoxaflutole 35 g ai/ha) was 0 and the “Classification and statistics of the grade of pesticide damage Grade 3” value ([2]; isoxaflutole 35 g ai/ha) was 16. For the same molecule, the Resistance evaluation ([2]; isoxaflutole 70 g ai/ha) was “Non-resistant”, the Scores ([2]; isoxaflutole 70 g ai/ha) was 100 and the Resistance evaluation [2, 9] was “Non-resistant”. For the same molecule, the “Scores (pesticide damage)” value [2, 9] was 100, the “Classification and statistics of the grade of pesticide damage: Grade 0 (number of plants)” value [2, 9] was 0 and the “Classification and statistics of the grade of pesticide damage: Grade 1 (number of plants)” value [2, 9] was 0. For the same molecule, the “Classification and statistics of the grade of pesticide damage: Grade 2 (number of plants)” value [2, 9] was 0, the “Classification and statistics of the grade of pesticide damage: Grade 3 (number of plants)” value [2, 9] was 16 and the “Classification and statistics of the grade of pesticide damage Grade 0” value ([2]; isoxaflutole 70 g ai/ha) was 0. For the same molecule, the “Classification and statistics of the grade of pesticide damage Grade 1” value ([2]; isoxaflutole 70 g ai/ha) was 0, the “Classification and statistics of the grade of pesticide damage Grade 2” value ([2]; isoxaflutole 70 g ai/ha) was 0 and the “Classification and statistics of the grade of pesticide damage Grade 3” value ([2]; isoxaflutole 70 g ai/ha) was 16. For the same molecule, the Resistance evaluation ([3]; mesotrione 52.5 g ai/ha) was “Non-resistant”, the Scores ([3]; mesotrione 52.5 g ai/ha) was 100 and the Resistance evaluation [3, 10] was “Non-resistant”. The Scores [3, 10] was 100, the “Grade 0 (classification and statistics of the grade of pesticide damage; number of plants)” value [3, 10] was 0 and the “Grade 1 (classification and statistics of the grade of pesticide damage; number of plants)” value [3, 10] was 0. The “Grade 2 (classification and statistics of the grade of pesticide damage; number of plants)” value [3, 10] was 0, the “Grade 3 (classification and statistics of the grade of pesticide damage; number of plants)” value [3, 10] was 16 and the “Classification and statistics of the grade of pesticide damage Grade 0” value ([3]; mesotrione 52.5 g ai/ha) was 0. The “Classification and statistics of the grade of pesticide damage Grade 1” value ([3]; mesotrione 52.5 g ai/ha) was 0, the “Classification and statistics of the grade of pesticide damage Grade 2” value ([3]; mesotrione 52.5 g ai/ha) was 0 and the “Classification and statistics of the grade of pesticide damage Grade 3” value ([3]; mesotrione 52.5 g ai/ha) was 16. For the same molecule, the Resistance evaluation ([3]; mesotrione 105 g ai/ha) was “Non-resistant”, the Scores ([3]; mesotrione 105 g ai/ha) was 100 and the Resistance evaluation [3, 11] was “Non-resistant”. For the same molecule, the Scores [3, 11] was 100, the “Grade 0 (classification and statistics of the grade of pesticide damage; number of plants)” value [3, 11] was 0 and the “Grade 1 (classification and statistics of the grade of pesticide damage; number of plants)” value [3, 11] was 0. The “Grade 2 (classification and statistics of the grade of pesticide damage; number of plants)” value [3, 11] was 0, the “Grade 3 (classification and statistics of the grade of pesticide damage; number of plants)” value [3, 11] was 16 and the “Classification and statistics of the grade of pesticide damage Grade 0” value ([3]; mesotrione 105 g ai/ha) was 0. The “Classification and statistics of the grade of pesticide damage Grade 1” value ([3]; mesotrione 105 g ai/ha) was 0, the “Classification and statistics of the grade of pesticide damage Grade 2” value ([3]; mesotrione 105 g ai/ha) was 0 and the “Classification and statistics of the grade of pesticide damage Grade 3” value ([3]; mesotrione 105 g ai/ha) was 16.

Source: patent US20250043302A1, “MUTATED HYDROXYPHENYLPYRUVATE DIOXYGENASE POLYPEPTIDE, AND CODING GENE AND USE THEREOF” (BEIJING DABEINONG BIOTECHNOLOGY CO., LTD., priority 2021, published 2025)
